According to patent US9023767B2, “γ-Secretase substrates and methods of use” (Memorial Sloan-Kettering Cancer Center, priority 2009, dated 2015):
Values belong to the molecule of their own block, whether it stands above or below them. Where a SMILES comes first, the peptide text is derived from it. [ ]: non-standard residue; d: D form. The star is where a group is joined. Biotin = O=C1N[C@H]2[C@H](CS[C@H]2CCCCC(=O)*)N1; Bpa = N[C@@H](Cc1ccc(C(=O)c2ccccc2)cc1)C(=O)O; Sta = CC(C)C[C@H](N)[C@@H](O)CC(=O)O; Isovaleryl = CC(C)CC(=O)*

What was measured:
γ-secretase [1] = target: T1, γ-secretase (Homo sapiens (Human), UniProt P49768+Q92542); assay: Photoaffinity labeling of γ-secretase in HeLa membrane by Aβ17-23BPA20-biotin; format: binding; conditions: probe 300 nM
Experimental: FIG. 4. […] Various concentrations of inhibitor were incubated with APP substrate (S4) or Notch peptide substrate containing the C-terminal biotinylated transmembrane domain of Notch1 and HeLa cell membrane in the presence of 0.25% CHAPSO. Aβ40 was detected by G2-10 antibody. The cleaved Notch product was detected by Val1744 antibody that specifically recognizes the cleaved product between Gly1743 and Val1744. Activities are expressed as percentage relative to reading that was produced in DMSO control. […] Various concentrations of S4 substrate were incubated with HeLa membrane in fixed concentrations of inhibitor as indicated. The double reciprocal velocity (1/v) and substrate concentrations (1/S) are plotted to determine the type of inhibition. […] Assays were conducted as described in FIG. 4A. […] The labeled samples were solubilized with RIPA buffer. Biotinylated proteins were captured with streptavidin-agarose and probed by immunoblotting using antibodies against biotin, PS1-CTF, PS1-NTF, Nicastrin, PEN-2 and APH-1a. HeLa cell membrane proteins were directly loaded onto lanes indicated by an arrow in the PEN-2 and APH-1a blots as positive controls. […] Upper panel: PS1-NTF; Lower panel: PS1-CTF.
The labeled proteins were eluted with 2×SDS sample buffer and analyzed with Western blotting using antibodies against the components of γ-secretase complex. Protein concentration was determined with the Dc protein assay kit (Bio-Rad)
After the photolyzed membranes were solubilized, biotinylated proteins were captured, eluted and analyzed by western blotting with antibodies against biotin, PS1, nicastrin, PEN-2 and APH-1.

γ-secretase [2] = target: T2, γ-secretase (Homo sapiens (Human), UniProt P49768); assay: HTRF γ-secretase assay with Sb4 substrate; format: biochemical; conditions: for pilot screen result: 10 μM, 1536-well
Excerpt: We set out to transfer the assay conditions obtained with the ECL method to an HTRF detection based format (FIG. 10b). The HTRF detection mixture consisted of mouse G2-10 antibody for recognition of the C-terminal epitope of the cleaved product, a Europium-labeled anti-mouse antibody (commonly, an antibody is conjugated with a cryptate ligand that forms a three dimensional coordination cage structure surrounding a lanthanide such as Eu^3+), along with Streptavidin conjugated to a trimeric form of the fluorescent protein allophycocyanin referred to as XL665. Cleavage of Sb4 substrate allows G2-10 mouse antibody to bind to the Aβ40-processed site on the cleaved substrate. The Steptavidin-XL665 conjugate binds directly with the biotin moiety on the N-terminal end of the Sb4 derived product. The anti-mouse Europium antibody targets to the G2-10 antibody, bringing all of these entities into close proximity. The Europium and XL665 reagents are a compatible pair of donor-acceptor fluorophores, and excitation of Europium at 337 nm results in fluorescence energy resonance transfer (FRET) to XL665 which fluoresces at 665 nm (FIG. 10b).
Human γ-secretase was prepared from HeLa cell membranes as described previously (Li et al., 2000). Briefly, HeLa cell pellet was resuspended in 1×MES buffer (50 mM MES, pH 6.0, 150 mM KCl, 5 mM CaCl2, 5 mM MgCl2) and treated with ‘complete’ protease inhibitor (Boehringer Mannheim). The resuspended pellet was mechanically homogenized by passing the cells through the French Press (Spectronic Instruments), and subsequently spun down at 800 g to remove cell debris and nuclei. Next, the supernatants were spun at 100,000 g in order to pellet the membranes. The pelleted membranes were resuspended in 1×MES buffer to approximately 12 mg/ml. This entire procedure was performed at 4° C. HeLa membranes were solubilized using 1% CHAPSO detergent in 1×MES buffer with protease inhibitors. After incubating for 1 hr at 4° C., the membrane was spun down at 100,000 g and the supernatants were collected and stored at −70° C. The collected fraction is defined as solubilized γ-secretase.
HTRF conditions were initially optimized in a 384-well format using a final volume of 20 μl. The high control for this assay was defined as the observed γ-secretase activity in the presence of 1% DMSO (v/v) and the low control as the activity observed when including 100 nM final concentration of Compound E (v/v). First, we determined a tolerable DMSO concentration that would not interfere with γ-secretase activity. Even with 3% DMSO (v/v) present in the assay mixture, there was virtually no effect on the γ-secretase activity (FIG. 11a), which was critical as delivery of library screening compounds required a final concentration of 2% DMSO (v/v) in the γ-secretase reaction. Next, we titrated the HTRF mixture components in an effort to minimize reagent costs for use in high throughput screening. […] Additionally, we varied Europium conjugated anti-mouse antibody and determined that 1 nM of this reagent in the HTRF mixture was sufficient for our assay conditions even though the signal continued to increase with higher concentrations of the anti-mouse antibody (FIG. 11c).
We have further miniaturized the HTRF assay from the established 384-well format to a 1536-well platform enabling more efficient screening of large chemical libraries. […] Based on these optimization experiments, we set our final assay conditions at 0.3 nM G2-10, 1 nM anti-mouse antibody, 15 nM Streptavidin-XL665, and proceeded with the assay at 10 μl final volume (5 μl γ-secretase mix+5 μl HTRF mix) in the 1536-well format for screening.
The pilot assay was performed in duplicate on two separate days to account for any day-to-day variability. […]

γ-secretase [3] = target: T1, γ-secretase; assay: In vitro γ-secretase assay, HeLa membrane, APP-derived substrates, ECL detection; format: biochemical; conditions: for γ-secretase activity %: cleavage of the substrate at the Aβ40 site, HeLa membrane, G2-10 antibody; for effect on γ-secretase processing of the S3 substrate (in trans): peptide 0.1, 1 and 10 μM, S3 0.5, 1 and 2 μM; for inhibition of X40 production / suppression of Aβ production: 1 μM βCTF substrate
Experimental: The recombinant proteins were incubated with γ-secretase (40 μg/ml) in the presence or absence of 1 μM γ-secretase inhibitor L-685,458 (CAS [292632-98-5], shown below). The reaction mixture contains 0.25% 3[(3-cholamidopropyl) dimethylammonio]-2-hydroxypropanesulfonic acid (CHAPSO), 0.1 μg/μl BSA, protease inhibitor, 50 mM PIPES, pH 7.0, 5 mM MgCl2, 5 mM CaCl2 and 150 mM KCl. The reaction was incubated for 2.5 hr at 37° C. and stopped by adding RIPA buffer (150 mM NaCl, 1.0% NP-40, 0.5% sodium
[drawing 1] deoxycholate, 0.1% SDS, 50 mM Tris HCl, pH 8.0). The products were detected with various antibody combinations as previously described (Lai et al., 2003; J. Biol. Chem., 278: 22475-22481; Li et al., 2000, Proc. Natl. Acad. Sci. USA, 97: 6138-6143; Yin et al., 2007, J. Biol. Chem., 282:23639-23644) using electrochemiluminescence (ECL). The amount of product was determined using synthetic peptide or recombinant standards. The Km and Vmax were determined from the Michaelis-Menten equation Michaelis-Menten Kinetics (ν=Vm[S]/([…]; ν: initial rate; Vm: maximum velocity; Km: the Michaelis-Menten constant, S: substrate). P-values were calculated from Student t-test. 7.1.5 Cell-Based Aβ Production Assay and Western Blot

γ-secretase [4] = target: T2, γ-secretase; assay: In vitro γ-secretase assay, solubilized γ-secretase, ECL; format: biochemical; conditions: substrate 1 μM, background with Compound E
Excerpt: The γ-secretase cleaved Aβ product derived from C100Flag substrate was detected by a pair of antibodies (biotinylated 4G8 and ruthenylated G2-10*) while Sb4 cleaved product was detected by ruthenylated G2-10* alone (FIG. 10a) and quantified using electrochemiluminescence (ECL) technology.
An in vitro assay was based on the one previously reported by Li et al. (2000), except we utilized Sb4 substrate that eliminated the need for biotinylated antibody. […] All assays incorporate ruthenylated G2-10* antibody to detect 40-site cleavage of APP or recombinant Sb4 substrate and quantitated activity by measuring ECL.

Molecule: CC(C)C[C@H](N)C(=O)N[C@H](C(=O)N[C@@H](Cc1ccccc1)C(=O)N[C@@H](Cc1ccc(C(=O)c2ccccc2)cc1)C(=O)N[C@@H](C)C(=O)N[C@@H](CCC(=O)O)C(=O)N[C@@H](CC(=O)O)C(=O)N[C@@H](CCCCNC(=O)CCCC[C@@H]1SC[C@@H]2NC(=O)N[C@@H]21)C(=O)O)C(C)C [Aβ17-23BPA^20-biotin] (H-LVF[Bpa]AEDK(Biotin)-OH; N-terminus and C-terminus assumed)
photolabeled bands, PS1 (γ-secretase [1]): co-migrated with PS1-CTF and PS1-NTF
photolabeling of PEN-2 and APH1a (γ-secretase [1]): not PEN-2 or APH1a
photolabeling of nicastrin (γ-secretase [1]): labels nicastrin

Molecule: N.N.[Cl][Pt][Cl] [Cisplatin]
pilot screen result (γ-secretase [2]): active compound

Molecule: CC(C)CC(=O)N[C@H](C(=O)N[C@H](C(=O)N[C@@H](CC(C)C)[C@@H](O)CC(=O)N[C@@H](C)C(=O)N[C@@H](CC(C)C)[C@@H](O)CC(=O)O)C(C)C)C(C)C [Pepstatin A] (Isovaleryl-VV[Sta]A[Sta]-OH)
pilot screen result (γ-secretase [2]): active compound
IC50 (γ-secretase [2]; dose response, read-out: IC50, HTRF assay): 6.43 µM

Molecule: O=C(O)CCCC[C@@H]1SC[C@@H]2NC(=O)N[C@@H]21 [biotin]
pilot screen result (γ-secretase [2]): active hit

Molecule: AviTag-KGAIIGLMVGGVVIATVIVITLVMLKKK [S1]
γ-secretase activity % (γ-secretase [3]): 100 ± 4.2%

Molecule: AviTag-LVFFAEDVGSNKGAIIGLMVGGVVIATVIVITLVMLKKK [S2]
γ-secretase activity % (γ-secretase [3]): None

B1: S3: AviTag substrate from Aβ17 with C-terminal tail of APP and FLAG (protein, listed as Homo sapiens)
chain: GLNDIFEAQKIEWHELVFFAEDVGSNKGAIIGLMVGGVVIATVIVITLVMLKKKQYTSIHHGVVEVDAAVTPEERHLSKMQQNGYENPTYKFFEQMQNDYKDDDDK
γ-secretase activity % (γ-secretase [3]): None

Further lines, with some results ahead:

inhibition of γ-secretase activity, APP processing (γ-secretase [3]): no inhibition
effect on γ-secretase processing of the S3 substrate (in trans) (γ-secretase [3]): no difference
Molecule: Aβ1-7: Aβ1-16 derived synthetic peptide (DAEFRHD; Amyloid-beta protein 42; UniProt P05067 672-678, looked up, fragment)

effect on γ-secretase processing of the S3 substrate (in trans) (γ-secretase [3]): no difference
Molecule: Aβ8-16: Aβ1-16 derived synthetic peptide (SGYEVHHQK; Amyloid-beta protein 42; UniProt P05067 679-687, looked up, fragment)

ratio of signal to background (γ-secretase [4]): 7 to 1
Molecule: C100Flag: truncated APP protein used in previously published γ-secretase assays

inhibition of Aβ40 production (γ-secretase [3]; 1, 3, 10 and 30 nM, βCTF or βCTFΔ substrate): did not inhibit
Molecule: P3-42: synthetic P3 peptide Aβ17-42 (LVFFAEDVGSNKGAIIGLMVGGVVIA; Amyloid-beta protein 42; UniProt P05067 688-713, looked up, fragment)

inhibition of X40 production (γ-secretase [3]; 0.25 μM): 24%
suppression of Aβ production (γ-secretase [3]; 0.25 μM): 66%
inhibition of X40 production (γ-secretase [3]; 0.5 μM): 32%
suppression of Aβ production (γ-secretase [3]; 0.5 μM): 71%
inhibition of X40 production (γ-secretase [3]; 1.0 μM): 60%
suppression of Aβ production (γ-secretase [3]; 1.0 μM): 82%
Molecule: αCTF: recombinant α-secretase cleaved APP C-terminal fragment

rate of γ-secretase hydrolysis relative to αCTF-FLAG (γ-secretase [3]; X40 production, 4G8/G2-10 antibodies): 12 fold
Molecule: βCTF: recombinant β-secretase cleaved APP C-terminal fragment
Vmax (γ-secretase [3]; Aβ40 product, 6E10/G2-10, ECL): 16 ± 1 min⁻¹ µg⁻¹
Km (γ-secretase [3]; Aβ40 product, 6E10/G2-10, ECL, read-out: apparent Km): 0.47 ± 0.09 µM

ratio of signal to background (γ-secretase [4]): 93 to 1
B2: Sb4: biotinylated AviTag-APP695(620-695) recombinant substrate (protein, listed as Homo sapiens)
chain: GLNDIFEAQKIEWHEVGSNKGAIIGLMVGGVVIATVIVITLVMLKKKQYTSIHHGVVEVDAAVTPEERHLSKMQQNGYENPTYKFFEQMQN
modifications: biotinylated
notes: biotinylated AviTag-APP695(620-695) recombinant substrate
